Test results from patent US20140087995A1 (published 2014).
Numbered stars: 1 amine (or outer) side, 2 acyl side, 3 side chain; on linkers, the order of the positions; unused ones are H or OH. Bridge positions count the residues as written; N and C are the ends. Side chains are listed from the residue outwards. Ends that are not written are not given here. * marks the point of attachment. C20 diacid = O=C(O)CCCCCCCCCCCCCCCCCCC(=O)*; γGlu = O=C(O)[C@H](CCC(=O)[*:2])N[*:1]; AEEA = NCCOCCOCC(=O)O

T1: human amylin receptor (human, UniProt P30988 25-474; O60896 24-148, limits assumed)
T1 construct: whole, on cells; Calcitonin receptor plus RAMP-3 gives the amylin 3(a) receptor; membranes of Amylin 3(a)/CRE-luc cells were used; also called hAmylin-R; hAmylinR
T1 sequence (looked up) 1: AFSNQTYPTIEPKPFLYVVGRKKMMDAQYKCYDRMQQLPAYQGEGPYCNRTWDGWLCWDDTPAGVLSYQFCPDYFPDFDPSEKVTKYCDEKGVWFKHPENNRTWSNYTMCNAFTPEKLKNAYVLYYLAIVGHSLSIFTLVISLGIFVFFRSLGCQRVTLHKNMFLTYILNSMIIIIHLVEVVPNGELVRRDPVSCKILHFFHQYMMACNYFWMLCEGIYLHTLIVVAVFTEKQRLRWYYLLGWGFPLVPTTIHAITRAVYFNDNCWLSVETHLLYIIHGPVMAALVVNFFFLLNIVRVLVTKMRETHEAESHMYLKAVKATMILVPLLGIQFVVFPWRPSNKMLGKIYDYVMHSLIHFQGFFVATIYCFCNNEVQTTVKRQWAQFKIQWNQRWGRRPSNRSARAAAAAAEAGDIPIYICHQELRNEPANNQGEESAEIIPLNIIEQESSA
T1 sequence (looked up) 2: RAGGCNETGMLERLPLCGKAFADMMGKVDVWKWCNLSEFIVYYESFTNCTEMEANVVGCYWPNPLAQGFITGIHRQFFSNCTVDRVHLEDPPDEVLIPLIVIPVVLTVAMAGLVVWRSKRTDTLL

B1: N^ε1-[(4S)-4-carboxy-4-(19-carboxynonadecanoylamino)butanoyl]-[Arg17,Pro21,Pro27]-h-amylin (peptide)
peptide: K([γGlu-C20 diacid])CNTATCATQRLANFLRHSSPNFGAIPSSTNVGSNTY-NH2
modifications: disulfide 2-7; N-terminus assumed
SMILES: CC[C@H](C)[C@H](NC(=O)[C@H](C)NC(=O)CNC(=O)[C@H](Cc1ccccc1)NC(=O)[C@H](CC(N)=O)NC(=O)[C@@H]1CCCN1C(=O)[C@H](CO)NC(=O)[C@H](CO)NC(=O)[C@H](Cc1c[nH]cn1)NC(=O)[C@H](CCCNC(=N)N)NC(=O)[C@H](CC(C)C)NC(=O)[C@H](Cc1ccccc1)NC(=O)[C@H](CC(N)=O)NC(=O)[C@H](C)NC(=O)[C@H](CC(C)C)NC(=O)[C@H](CCCNC(=N)N)NC(=O)[C@H](CCC(N)=O)NC(=O)[C@@H](NC(=O)[C@H](C)NC(=O)[C@@H]1CSSC[C@H](NC(=O)[C@@H](N)CCCCNC(=O)CC[C@H](NC(=O)CCCCCCCCCCCCCCCCCCC(=O)O)C(=O)O)C(=O)N[C@@H](CC(N)=O)C(=O)N[C@@H]([C@@H](C)O)C(=O)N[C@@H](C)C(=O)N[C@@H]([C@@H](C)O)C(=O)N1)[C@@H](C)O)C(=O)N1CCC[C@H]1C(=O)N[C@@H](CO)C(=O)N[C@@H](CO)C(=O)N[C@H](C(=O)N[C@@H](CC(N)=O)C(=O)N[C@H](C(=O)NCC(=O)N[C@@H](CO)C(=O)N[C@@H](CC(N)=O)C(=O)N[C@H](C(=O)N[C@@H](Cc1ccc(O)cc1)C(N)=O)[C@@H](C)O)C(C)C)[C@@H](C)O
notes: also called 17R, 21P, 27P
B2: N^-1-[(4S)-4-carboxy-4-(19-carboxynonadecanoylamino)butanoyl]-Gly[Arg1,Arg17,Pro21,Pro27,His35]-h-amylin (peptide)
peptide: {C20 diacid-γGlu}-GRCNTATCATQRLANFLRHSSPNFGAIPSSTNVGSHTY-NH2
modifications: disulfide 3-8
SMILES: CC[C@H](C)[C@H](NC(=O)[C@H](C)NC(=O)CNC(=O)[C@H](Cc1ccccc1)NC(=O)[C@H](CC(N)=O)NC(=O)[C@@H]1CCCN1C(=O)[C@H](CO)NC(=O)[C@H](CO)NC(=O)[C@H](Cc1c[nH]cn1)NC(=O)[C@H](CCCNC(=N)N)NC(=O)[C@H](CC(C)C)NC(=O)[C@H](Cc1ccccc1)NC(=O)[C@H](CC(N)=O)NC(=O)[C@H](C)NC(=O)[C@H](CC(C)C)NC(=O)[C@H](CCCNC(=N)N)NC(=O)[C@H](CCC(N)=O)NC(=O)[C@@H](NC(=O)[C@H](C)NC(=O)[C@@H]1CSSC[C@H](NC(=O)[C@H](CCCNC(=N)N)NC(=O)CNC(=O)CC[C@H](NC(=O)CCCCCCCCCCCCCCCCCCC(=O)O)C(=O)O)C(=O)N[C@@H](CC(N)=O)C(=O)N[C@@H]([C@@H](C)O)C(=O)N[C@@H](C)C(=O)N[C@@H]([C@@H](C)O)C(=O)N1)[C@@H](C)O)C(=O)N1CCC[C@H]1C(=O)N[C@@H](CO)C(=O)N[C@@H](CO)C(=O)N[C@H](C(=O)N[C@@H](CC(N)=O)C(=O)N[C@H](C(=O)NCC(=O)N[C@@H](CO)C(=O)N[C@@H](Cc1c[nH]cn1)C(=O)N[C@H](C(=O)N[C@@H](Cc1ccc(O)cc1)C(N)=O)[C@@H](C)O)C(C)C)[C@@H](C)O
notes: also called -1G, 1R, 17R, 21P, 27P, 35H
B3: N^ε-[2-[2-[2-[[(4S)-4-carboxy-4-(19-carboxynonadecanoylamino)butanoyl]amino]ethoxy]ethoxy]acetyl]Lys[Arg1,Arg17,Pro21,Pro27,His35]-h-amylin (peptide)
peptide: K([AEEA-γGlu-C20 diacid])RCNTATCATQRLANFLRHSSPNFGAIPSSTNVGSHTY-NH2
modifications: disulfide 3-8; N-terminus assumed
SMILES: CC[C@H](C)[C@H](NC(=O)[C@H](C)NC(=O)CNC(=O)[C@H](Cc1ccccc1)NC(=O)[C@H](CC(N)=O)NC(=O)[C@@H]1CCCN1C(=O)[C@H](CO)NC(=O)[C@H](CO)NC(=O)[C@H](Cc1c[nH]cn1)NC(=O)[C@H](CCCNC(=N)N)NC(=O)[C@H](CC(C)C)NC(=O)[C@H](Cc1ccccc1)NC(=O)[C@H](CC(N)=O)NC(=O)[C@H](C)NC(=O)[C@H](CC(C)C)NC(=O)[C@H](CCCNC(=N)N)NC(=O)[C@H](CCC(N)=O)NC(=O)[C@@H](NC(=O)[C@H](C)NC(=O)[C@@H]1CSSC[C@H](NC(=O)[C@H](CCCNC(=N)N)NC(=O)[C@@H](N)CCCCNC(=O)COCCOCCNC(=O)CC[C@H](NC(=O)CCCCCCCCCCCCCCCCCCC(=O)O)C(=O)O)C(=O)N[C@@H](CC(N)=O)C(=O)N[C@@H]([C@@H](C)O)C(=O)N[C@@H](C)C(=O)N[C@@H]([C@@H](C)O)C(=O)N1)[C@@H](C)O)C(=O)N1CCC[C@H]1C(=O)N[C@@H](CO)C(=O)N[C@@H](CO)C(=O)N[C@H](C(=O)N[C@@H](CC(N)=O)C(=O)N[C@H](C(=O)NCC(=O)N[C@@H](CO)C(=O)N[C@@H](Cc1c[nH]cn1)C(=O)N[C@H](C(=O)N[C@@H](Cc1ccc(O)cc1)C(N)=O)[C@@H](C)O)C(C)C)[C@@H](C)O
notes: also called -1K, 1R, 17R, 21P, 27P, 35H
B4: N^ε-[(4S)-4-carboxy-4-(19-carboxynonadecanoylamino)butanoyl]Lys[Arg1,Arg17,Pro21,Pro27,His35]-h-amylin (peptide)
peptide: K([γGlu-C20 diacid])RCNTATCATQRLANFLRHSSPNFGAIPSSTNVGSHTY-NH2
modifications: disulfide 3-8; N-terminus assumed
SMILES: CC[C@H](C)[C@H](NC(=O)[C@H](C)NC(=O)CNC(=O)[C@H](Cc1ccccc1)NC(=O)[C@H](CC(N)=O)NC(=O)[C@@H]1CCCN1C(=O)[C@H](CO)NC(=O)[C@H](CO)NC(=O)[C@H](Cc1c[nH]cn1)NC(=O)[C@H](CCCNC(=N)N)NC(=O)[C@H](CC(C)C)NC(=O)[C@H](Cc1ccccc1)NC(=O)[C@H](CC(N)=O)NC(=O)[C@H](C)NC(=O)[C@H](CC(C)C)NC(=O)[C@H](CCCNC(=N)N)NC(=O)[C@H](CCC(N)=O)NC(=O)[C@@H](NC(=O)[C@H](C)NC(=O)[C@@H]1CSSC[C@H](NC(=O)[C@H](CCCNC(=N)N)NC(=O)[C@@H](N)CCCCNC(=O)CC[C@H](NC(=O)CCCCCCCCCCCCCCCCCCC(=O)O)C(=O)O)C(=O)N[C@@H](CC(N)=O)C(=O)N[C@@H]([C@@H](C)O)C(=O)N[C@@H](C)C(=O)N[C@@H]([C@@H](C)O)C(=O)N1)[C@@H](C)O)C(=O)N1CCC[C@H]1C(=O)N[C@@H](CO)C(=O)N[C@@H](CO)C(=O)N[C@H](C(=O)N[C@@H](CC(N)=O)C(=O)N[C@H](C(=O)NCC(=O)N[C@@H](CO)C(=O)N[C@@H](Cc1c[nH]cn1)C(=O)N[C@H](C(=O)N[C@@H](Cc1ccc(O)cc1)C(N)=O)[C@@H](C)O)C(C)C)[C@@H](C)O
notes: as for B3
B5: N{-1}-[(4S)-4-carboxy-4-(19-carboxynonadecanoylamino)butanoyl]-Gly[Arg1,His14,Arg17,Pro21,Pro27]-h-amylin (peptide)
peptide: {C20 diacid-γGlu}-GRCNTATCATQRLAHFLRHSSPNFGAIPSSTNVGSNTY-NH2
modifications: disulfide 3-8
SMILES: CC[C@H](C)[C@H](NC(=O)[C@H](C)NC(=O)CNC(=O)[C@H](Cc1ccccc1)NC(=O)[C@H](CC(N)=O)NC(=O)[C@@H]1CCCN1C(=O)[C@H](CO)NC(=O)[C@H](CO)NC(=O)[C@H](Cc1c[nH]cn1)NC(=O)[C@H](CCCNC(=N)N)NC(=O)[C@H](CC(C)C)NC(=O)[C@H](Cc1ccccc1)NC(=O)[C@H](Cc1c[nH]cn1)NC(=O)[C@H](C)NC(=O)[C@H](CC(C)C)NC(=O)[C@H](CCCNC(=N)N)NC(=O)[C@H](CCC(N)=O)NC(=O)[C@@H](NC(=O)[C@H](C)NC(=O)[C@@H]1CSSC[C@H](NC(=O)[C@H](CCCNC(=N)N)NC(=O)CNC(=O)CC[C@H](NC(=O)CCCCCCCCCCCCCCCCCCC(=O)O)C(=O)O)C(=O)N[C@@H](CC(N)=O)C(=O)N[C@@H]([C@@H](C)O)C(=O)N[C@@H](C)C(=O)N[C@@H]([C@@H](C)O)C(=O)N1)[C@@H](C)O)C(=O)N1CCC[C@H]1C(=O)N[C@@H](CO)C(=O)N[C@@H](CO)C(=O)N[C@H](C(=O)N[C@@H](CC(N)=O)C(=O)N[C@H](C(=O)NCC(=O)N[C@@H](CO)C(=O)N[C@@H](CC(N)=O)C(=O)N[C@H](C(=O)N[C@@H](Cc1ccc(O)cc1)C(N)=O)[C@@H](C)O)C(C)C)[C@@H](C)O
notes: also called -1G, 1R, 14H, 17R, 21P, 27P
B6: N^-1-[(4S)-4-carboxy-4-(19-carboxynonadecanoylamino)butanoyl]-Gly[Arg1,His14,Arg17,Pro21,Pro27,Pro34]-h-amylin (peptide)
peptide: {C20 diacid-γGlu}-GRCNTATCATQRLAHFLRHSSPNFGAIPSSTNVGPNTY-NH2
modifications: disulfide 3-8
SMILES: CC[C@H](C)[C@H](NC(=O)[C@H](C)NC(=O)CNC(=O)[C@H](Cc1ccccc1)NC(=O)[C@H](CC(N)=O)NC(=O)[C@@H]1CCCN1C(=O)[C@H](CO)NC(=O)[C@H](CO)NC(=O)[C@H](Cc1c[nH]cn1)NC(=O)[C@H](CCCNC(=N)N)NC(=O)[C@H](CC(C)C)NC(=O)[C@H](Cc1ccccc1)NC(=O)[C@H](Cc1c[nH]cn1)NC(=O)[C@H](C)NC(=O)[C@H](CC(C)C)NC(=O)[C@H](CCCNC(=N)N)NC(=O)[C@H](CCC(N)=O)NC(=O)[C@@H](NC(=O)[C@H](C)NC(=O)[C@@H]1CSSC[C@H](NC(=O)[C@H](CCCNC(=N)N)NC(=O)CNC(=O)CC[C@H](NC(=O)CCCCCCCCCCCCCCCCCCC(=O)O)C(=O)O)C(=O)N[C@@H](CC(N)=O)C(=O)N[C@@H]([C@@H](C)O)C(=O)N[C@@H](C)C(=O)N[C@@H]([C@@H](C)O)C(=O)N1)[C@@H](C)O)C(=O)N1CCC[C@H]1C(=O)N[C@@H](CO)C(=O)N[C@@H](CO)C(=O)N[C@H](C(=O)N[C@@H](CC(N)=O)C(=O)N[C@H](C(=O)NCC(=O)N1CCC[C@H]1C(=O)N[C@@H](CC(N)=O)C(=O)N[C@H](C(=O)N[C@@H](Cc1ccc(O)cc1)C(N)=O)[C@@H](C)O)C(C)C)[C@@H](C)O
notes: also called -1G, 1R, 14H, 17R, 21P, 27P, 34P

These binders were tested against T1, human amylin receptor (assay: SPA competition binding, displacement of 125I-rat amylin from membranes with human amylin 3(a) receptor (Assay V)).
Procedure, shortened: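 One-site competition analysis of SPA counts yielded IC₅₀ as a measure of affinity. Membranes were at 35 ng/μL final; incubation was 120 min at 25° C, pH 7.4.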
B1 was tested, and the IC50 was 0.443 nM.
Work on B2 yielded an IC50 of 0.344 nM.
With B3 the IC50 was 0.552 nM.
Binder B4 has an IC50 of 0.275 nM.
B5 showed an IC50 of 0.348 nM.
With B6 the IC50 was 0.217 nM.
